What was measured:
[1] = molecular target: FVIIIa (activated factor VIII) (UniProt P00451); assay: apparent Kd from FXa generation, as FIG. 1, in the absence of hirudin
[2] = molecular target: FVIIIa (activated factor VIII) (UniProt P00451); assay: apparent Kd from FXa generation, as FIG. 1, in the presence of 100 nM hirudin
[3] = molecular target: FVIIIa (activated factor VIII) (UniProt P00451)
[4] = molecular target: FVIIIa (activated factor VIII) (UniProt P00451); assay: apparent Kd; 0.1 nM FVIIIa titrated with 0-5 nM FIXa, 100 µM PSPC vesicles, 5 mM CaCl2; complex read by the initial rate of FXa generation, quadratic fit

Chain of UniProt P00451 (P00451 whole entry, looked up): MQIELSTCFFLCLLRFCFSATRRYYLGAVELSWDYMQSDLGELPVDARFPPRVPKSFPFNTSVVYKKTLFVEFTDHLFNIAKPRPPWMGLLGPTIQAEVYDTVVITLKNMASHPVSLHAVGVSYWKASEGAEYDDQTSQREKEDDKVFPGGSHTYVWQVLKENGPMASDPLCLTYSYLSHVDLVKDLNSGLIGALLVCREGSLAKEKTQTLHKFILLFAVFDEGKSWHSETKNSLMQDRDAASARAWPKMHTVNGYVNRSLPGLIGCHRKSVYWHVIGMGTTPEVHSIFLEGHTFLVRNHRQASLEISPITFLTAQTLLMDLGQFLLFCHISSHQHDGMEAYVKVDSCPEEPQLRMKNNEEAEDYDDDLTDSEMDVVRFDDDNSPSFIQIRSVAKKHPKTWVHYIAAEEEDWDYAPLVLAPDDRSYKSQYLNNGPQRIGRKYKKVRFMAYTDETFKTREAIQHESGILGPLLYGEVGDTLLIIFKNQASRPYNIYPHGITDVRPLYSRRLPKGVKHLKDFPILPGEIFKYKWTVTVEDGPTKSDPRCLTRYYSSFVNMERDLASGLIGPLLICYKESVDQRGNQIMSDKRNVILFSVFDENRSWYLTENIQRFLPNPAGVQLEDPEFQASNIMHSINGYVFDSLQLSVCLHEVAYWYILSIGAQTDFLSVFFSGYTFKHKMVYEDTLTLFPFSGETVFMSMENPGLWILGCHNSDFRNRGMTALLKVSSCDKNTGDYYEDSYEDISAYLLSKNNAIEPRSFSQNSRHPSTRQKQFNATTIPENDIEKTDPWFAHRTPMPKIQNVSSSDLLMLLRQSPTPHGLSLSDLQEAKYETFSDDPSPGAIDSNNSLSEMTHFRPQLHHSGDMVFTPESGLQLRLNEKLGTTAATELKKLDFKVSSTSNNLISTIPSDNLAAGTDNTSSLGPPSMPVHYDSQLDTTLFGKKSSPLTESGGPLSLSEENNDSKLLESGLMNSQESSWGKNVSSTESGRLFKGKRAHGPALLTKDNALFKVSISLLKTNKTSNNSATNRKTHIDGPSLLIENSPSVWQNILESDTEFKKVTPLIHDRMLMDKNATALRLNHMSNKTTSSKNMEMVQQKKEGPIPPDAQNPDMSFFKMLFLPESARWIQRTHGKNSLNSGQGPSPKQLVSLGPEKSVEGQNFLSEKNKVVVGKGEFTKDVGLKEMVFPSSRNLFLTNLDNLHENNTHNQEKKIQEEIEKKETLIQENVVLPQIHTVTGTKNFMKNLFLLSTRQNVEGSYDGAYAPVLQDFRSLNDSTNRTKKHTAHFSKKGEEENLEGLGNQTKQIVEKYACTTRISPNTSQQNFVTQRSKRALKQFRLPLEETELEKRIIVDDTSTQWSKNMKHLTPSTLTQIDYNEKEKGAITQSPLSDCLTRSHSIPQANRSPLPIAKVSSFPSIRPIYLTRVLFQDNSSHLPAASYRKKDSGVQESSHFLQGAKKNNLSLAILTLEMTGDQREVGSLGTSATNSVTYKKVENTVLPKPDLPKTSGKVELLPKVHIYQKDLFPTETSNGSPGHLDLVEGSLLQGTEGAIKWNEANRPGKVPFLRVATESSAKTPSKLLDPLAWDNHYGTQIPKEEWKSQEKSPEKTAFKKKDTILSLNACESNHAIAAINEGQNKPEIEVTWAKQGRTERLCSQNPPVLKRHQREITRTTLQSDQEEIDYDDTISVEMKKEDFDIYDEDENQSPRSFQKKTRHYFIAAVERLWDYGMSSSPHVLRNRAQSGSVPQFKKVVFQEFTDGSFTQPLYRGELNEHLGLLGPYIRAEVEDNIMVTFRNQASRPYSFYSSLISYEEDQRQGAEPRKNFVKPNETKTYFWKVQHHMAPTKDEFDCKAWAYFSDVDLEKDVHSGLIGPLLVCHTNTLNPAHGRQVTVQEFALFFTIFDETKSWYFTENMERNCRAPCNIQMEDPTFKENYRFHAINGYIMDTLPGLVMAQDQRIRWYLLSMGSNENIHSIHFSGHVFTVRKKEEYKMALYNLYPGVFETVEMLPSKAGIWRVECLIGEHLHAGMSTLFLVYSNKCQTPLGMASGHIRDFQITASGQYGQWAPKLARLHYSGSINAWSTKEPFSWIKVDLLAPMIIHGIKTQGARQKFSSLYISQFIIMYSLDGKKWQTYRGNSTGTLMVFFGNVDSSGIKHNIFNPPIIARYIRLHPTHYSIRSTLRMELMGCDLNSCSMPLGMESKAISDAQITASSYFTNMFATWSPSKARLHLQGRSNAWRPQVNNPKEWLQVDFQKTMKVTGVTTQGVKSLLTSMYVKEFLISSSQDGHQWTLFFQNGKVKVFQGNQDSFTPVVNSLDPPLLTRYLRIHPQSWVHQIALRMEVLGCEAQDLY

Substance | Bmax, in the absence of hirudin [3] [nM FXa/min] | Bmax, in the presence of 100 nM hirudin [3] [nM FXa/min] | maximum rate of FX cleavage (Bmax of FIG. 1) [3] | also measured
recombinant wt-FIXa (activated recombinant wild type Factor IX) (from UniProt P00740 47-191; P00740 227-461) (enzyme) | – | – | – | Kd [1]: 0.38 nM; Kd [2]: 0.85 nM
R338A-FIXa (activated Factor IX with alanine at position 338) | 3.39±0.12 | 3.38±0.19 | 3.56±0.15 nM FXa/min | –
plasma FIXa (activated purified normal human plasma Factor IX) | – | – | 1.30 ± 0.10 nM/min | –
plasma FIXa (activated purified normal human plasma Factor IX) (from UniProt P00740 47-191; P00740 227-461) (enzyme) | – | – | – | Kd [4]: 1.01 nM
recombinant wt-FIXa (activated recombinant wild type Factor IX) | 1.27±0.12 | 1.35±0.15 | – | –

From US20020031799A1
